According to the DeepSol protein solubility set:

Assay: soluble on expression in E. coli; label from the status in PepcDB or PDB records

Row | Sequence | soluble on expression in E. coli
1 | MGSDKIHHHHHHMGREIFNRRLPDNYNDFSHSMDNAANGHYFLRVASSNYKRPDGKNVRTVRDVIAEVDQNGVVVDEWRLFDILDPYRDVIMKTLDQGAVCLNIDASQSGHTLSEEDLAALDSSDKFGDIVGSGAGRNWAHVNSVDYDSEDDSIIISSRHQSAIIKIGRDKKVKWILGTPAGWKAPFNAAILTPVDSKGQKIACQDSGCEGDFDWTWTQHTAFKIDSKSKGDILYLSAFDNGDGRGLEQPAMQSMKYSRSVIYKIDQKNKTVQQIWQYGKERGNEWFSPVTSITEYQTDKNSVFVYSATAGGAFDLSVGAFTSLPNPYLEEFKWGEKEPAVEMQIHGARGYQAMPFSLTKALTE | not soluble
2 | MGSDKIHHHHHHMGSLEQRRLEQDKRPDDVRDEYDRDEARLIHSAAFRRLQSKTQVLGLGESDFYRTRLTHSMEVAQIGRGIVQYLSKNKKFAEYHEHLPNTSLITAICLAHDIGHPPFGHGGEVALNYCMREHGGFEGNGQTLRILGKLDKYTGEHGLNPTRRMLLGILKYPVAYSELVNEKAYEQVPDKNAPYWLFEARMQKPPKCYHDCDQEIVDFIFDGFAREELAKFTQTEQPIDKDEPEKPLHKKSLYKSLDCTIMNLADNISYSLHDFEDALSLGMITQRHWREHFEGKEALFNDLAKQLVRNDLNFDLITVNLFHKESHCRKEAIGSLVNLMITNAIIEKNQSGCENPLLSLEVKLAPQIEKLRQHIFDLVCEQVIFDENVQQLEFKGQKLVIELFQTLAKDPNRFLPKPTRERLKKAGEGLEGEHKKSAQLRVICDFVSGMTDDYATKFYEKLFTPSKGSIFDRL | not soluble
3 | MGSDKIHHHHHHMGTDSEKAIPPKVSRAAAEWLVELHSGQVGKEVREQWQAWRAAHPDHERAWQHIEMLGERLGGLSSSLAHATMAPRGSLRRRRAIKTLAMLLFAGGSAWVVQEKTPWWQLSADYSTGIGEQRRIELEDGTVVDLNSSSAINVAYTQQQRILMLLRGEMHVATASESATARPFLIASDQGSVRAFGTRFVVRQLTNEKDSPIKVGVLEGAVEVAPSEMPARVRLQAGEQLSFTRHMVTPIEPVIPHDTAWLQRMLVADDMPLGEFLAELSRYRKGSLGCDHSIKHLKVSGTYPLDDTDKVIEMLQQSLNLQVRMLTRYWVRLMPPAA | not soluble
4 | MGSDKIHHHHHHMGVDPFERNKILGRGINIGNALEAPNEGDWGVVIKDEFFDIIKEAGFSHVRIPIRWSTHAYAFPPYKIMDRFFKRVDEVINGALKRGLAVVINIHHYEELMNDPEEHKERFLALWKQIADRYKDYPETLFFEILNEPHGNLTPEKWNELLEEALKVIRSIDKKHTIIIGTAEWGGISALEKLSVPKWEKNSIVTIHYYNPFEFTHQGAEWVEGSEKWLGRKWGSPDDQKHLIEEFNFIEEWSKKNKRPIYIGEFGAYRKADLESRIKWTSFVVREMEKRRWSWAYWEFCSGFGVYDTLRKTWNKDLLEALIGGDSIE | not soluble
5 | MGSDKIHHHHHHMGVIQKIKNLVTRSKYVMTTQSLTNITDHPKIAISKLEYDRITTNLKYYKSDWDSVLYLNTDGETKKRDLNHLPIARTAAKKIASLVFNEQAEIKVDDDAANEFISETLKNDRFNKNFERYLESCLALGGLAMRPYVDGDKVRVAFVQAPVFLPLQSNTQDVSSAAVVIKSVKTINGKEVYYTLIEFHEWQSSDDYVISNELYRSDDKAKVGSRVPLSEVYKDLKDEAKVTDVTRPIFTYLKTPGMNNKDINSPLGLSIFDNAKTTIDFINTTYDEFMWEVKMGQRRVAVPESLTALTVRTADGDVVPRPRFESDQNVYIRMGGRDLDSSAIQDLTTPIRADDYIKAINEGLSLFEMQIGVSAGLFSFDGKSMKTATEIVSENSDTYQMRNSIVTLVEQSLKELVISIFEIAKAYDLYQSEVPSMDNISISLDDGVFTDRDAELDYWIKVVNAGFGTREMAIQKVLNVTEEKAQEIAAEINTGIVDEINQQRTDTHLYGE | not soluble
6 | MGSDKIHHHHHHMGVRQKKIAAHDLEIGMFVSDLDRPWHQTPFPIQGFYLRSENDLKAVVSHCKWVMIDVAETREEITLGSDKVRPFARRSSARSGGREELQLAPLSIREPVVYKNDVPLRKELKASRKLLNDAELALSRMFETIRDDQMPDLRPAAEVTRRMVESVIRQPNALLWLSRTRQYDDFVYRHALNTAVWALVCGRQLGLNEGLLNHLGVGCLLSQVGKTALPKEMLAREHQLSTEEYATYRTYVERGCQMLEGAGLSRAVMSVVQGHRERHNGSGFPQGIRGDRIPLLAKVAGIAEFFESLIAPRDDQDPMTPAKAVSLLYDMRNIEFQEDLVEAFIQGVGVYPTGTLVELSDGQRGIVVSHSPGRRLWPSVMVMQDAEHRPLKSARIVDLARHIESRAASELLTVRECLPHGTDGLDPAGFDVTGAESRWSLGKLINR | not soluble
7 | MGSDKIHHHHHHMHFAPVEQATRFLADNPDIELFELFILDANGVPRGKLLHREELLAVYQTGRPLPSTILGLTLNGDDVENSGLVWDVGDIDCRAYPLDGSLVRLPWRRVPTAAVQVSMHPSEGLPASIADPRHVLLRTIEALKADGYHPVMACELEFYLLDQQRDAQGRPQPALDNDGGRPRSTQVYGLRELEQIEPFLADLYAACKAQGIPARTAISEYAPGQVEITLEHGDALQAMDQAVRYKRLVKGVAHAHGMQACFMAKPFAQLAGTGMHMHLSLADSAGNNLFASEDKAGTPLLRQAVAGMLRHLRDSLLLFCPNANSFRRFQANSYAPLAPTWGVDNRTVSLRVPGGPANSRHVEHRICGADANPYLAAAAILAASHWGIREQLDPGAPVEGNGYAQATEHLPTDWLTALDALQHSDWAREALGEDFLGVYLKVKRAEYRQFMAEVSEQDWRWYLHQA | not soluble
8 | MGSDKIHHHHHHMHGELGKENELDGEIFRQGPVEIRDSRQKVIHSGFSPESQIIEGINAIIKLAHSEEESNLVGIMMSHFMFESIHPFYDGNGRTGRYLLGIQLSKILSPATALTMSSAINQFRNKYYKAFHAVEHRLNRGDGTPFVISMLELLIAAQEGLIENIKQRIDFLASLEDAIKTLRGTNSFKNHQINLLYILGQIQLFGKDETLSLESAAKFLKVSKATATRYFRTLREMELVHEVSKRPLRFALTDKGREIVGLEVKI | not soluble
9 | MGSDKIHHHHHHMHHIGLTRPYSWGIKNFELITVTEKLNIHIQGQGFPILGLHGHPGSGRSLSVFTNHLSKRYQTIAPDLRGYGTSRFRGNFTMQDHLTDLEALLDRLQIEKCLVLGWSLGGILAMELALRLPQRITGLILVATAARPRGNHPPISWQDNLYTGVAGLLNYIKPGWRWNIETFGKRSLFRYLIQQHTPTAYNYIAREALPAYLQTSPSATRALNSALRLGYNRLADLEQIHCPSLVLAGAQDKHITADSSLETAQHLKQSQWQCYPHTAHLFPWEIPQQVINDIDLWLANNSQVMSN | not soluble
10 | MGSDKIHHHHHHMHHVKTGALSISRLEYGADVIIEPDHLDNFYLIQIPTQGYAEIEFGSQKFISYSQVASLISPQQSLRMCWHANSPQLILKVSKDDFTYHCRQHIADSENNLLIFDPKLDFSTQGGAYFLQLVRTLMDALACEQHPLHHPLAFKQFESNLFNALIYGQPNNALHKLDHYKEKTVSPYFVKRTEAYIKEHLHEPLNVEILAEHAGVSVRTLFTGFKNYLGTTPMSYLKELRFEQAHLELMHNENLSVTDVAFKWGFTHLGRFSQEYKRRYGELPSSTRRSGQSEGSGLITSIFS | not soluble
11 | MGSDKIHHHHHHMHIRKYDHDYSRRFFMEQAAKGIATAGVLGPLWPMIANSADITKAYPDELMSIDAWSKGKIKTGDFITAENVDIVKDLLDPVAYQEVKTMGRRIRIVPTTKDVTRMFPHEYLEATLRNQGKAKFDAGGNIVSPDGKPWIGGNPFPDAKTGVEVAANLTLCWGRHDNSIYAIRDWEIAPDGSQSYQYDFAWVEENSVARAQAKSFPGGEDKLRYQAVFFTSPVDVKGTSYLSTWYYDQRKFPDLSGYLPAFKRVRKFPTNQRFEPLVAGVNFYLSDAWASGDPMLTWGNYKIVGRGPMLGAQSQTWYGDHPNWERPVHGGPKGITFFDTNMELCPDVVVFEAEPVGYPRAPVSKKRVWVDTRNMMFVAYVTYDRRGDLFKSFEPQFSLYEKGDKKLMDGSHTAWSWTAVTCHNIQDGRMTRFLQTKSIAGGVSQGYNVEGTFDKYLTEQALQRLGT | not soluble
12 | MGSDKIHHHHHHMHSLQQLKSQLLSYHAGILGEEYVKKSAVFIPLVEKDDGVHVLFEVRAHTLKQQPGEICFPGGRIDPEDASPEEAAIRETSEELGIPSSVIAPITSLDVLVTPFRGIIYPVIGSIPHKNDYPLNQAEVDHVFTVPIDHFISHPPEQYRINVHFEPGAGFPIERIANQSAYQKSTRQITESFYYYQSYVIWGLTAKILRHVITILKPS | not soluble
